Data reported in the domain aggregation screens of Martell et al. (2025).

Test: soluble fraction after stress (log2 fold change); higher = more stays soluble; pooled small domains, quantitative proteomics
Details: stress: pH 4
Method in brief: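 After pH 4 stress, pooled custom libraries of small protein domains were quantified with high-throughput quantitative proteomics. Aggregation propensity is taken from the fold change in each domain's soluble amount following the acid stress. The scale is log2, where higher values mean more stayed soluble.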

HMDKEIKILKEKRLDDVQQAIRELSPQKRRVVEMKLYHNSTNQEVADKLAISVNTVKSLYTSALHDLRRIL
soluble fraction (log2): 0.109

HMSMISLPNFVGKDIETVKAWAKENGITLIINKVEDSAKKDTVISQNPTNSDYSKILKGSAFTVNIAKE
soluble fraction (log2): 0.126

HMHSDWITWWYLKDKRFDDDYSLWDRQPVHPEYFEVVKEFKAPPESNPGGLDEVKRILRTYIPDAFAP
soluble fraction (log2): 0.162

HMANKLSEQIYGSILKDIVNGVYAPREFISEAQIAAKYGVSKAPVKEAMHILASEGFLLSYPKRGYMVN
soluble fraction (log2): 0.109

HMGVPTEQQSLIGKSGIAATDLRPSGKVEIDGKRYDAVSNYAGFIAKGTPISVVRYETGQIYVE
soluble fraction (log2): 0.0721

HMNNTIKFSVDIKNSGKRLDIFLSENVTQYTRSYLKRLIENSHVKLNNKILNSPSTKVKFQDQIIINNIE
soluble fraction (log2): 0.0707

HMGIAWGMLREQVAASDVSYRSEVLDILDRTPVWIYDAEGKIVDGRKKRLMDLQGGEPYRHMLEHFFPDLR
soluble fraction (log2): -1.96

HMWQVVEVDYGTFMSMTEDGQVGRVEIQEQENLILFTDQEETTVYKTAMVDDPDLTARLHDAGIPFYGQE
soluble fraction (log2): -2.29

HMATGTVKWFNPNKGFGFIQQDDASKDVFVHSNELNGVYINEGDKVEFDVVETEKGLSAQNIKK
soluble fraction (log2): 0.0939

HMEYSAAYDRELESIFNLTERGKWEEAEAEVGLLLQQYPEDKTLLRISEWVATQKTILREQAIEDRIRS
soluble fraction (log2): -0.48

HMEYSYKLIDLLVDRFSEEGVDPEEAREYINLFHRFSQGLDPDKRDITKYSWDELYRTVNDKKDS
soluble fraction (log2): -0.344

HMNKNIKIPNISNLSREDAESVLKESGISVSTEIKEVESDTIEKGKVVKTEPSIGSTVKQGRTITIYISSG
soluble fraction (log2): 0.092

HMIIIPKKDYDVSQLDNLVSWLKDRGLEVHISRGENLTVIGLIGDTSKIDIDLIRSLDVVEEVKRIQ
soluble fraction (log2): -1.31

HMDVAAQITYAMRTMGVAPIPRNYELFYEAYIGSNPALTKELAALGSKATQEELDELGQQYF
soluble fraction (log2): -1.43

HMKIDANTFTSIEKQLFVLLSKTPTPMGSIFVALAKEDKEAVWEVIHFLEAENRLIMNEDGTIQL
soluble fraction (log2): -1.09

HMADQVVGQLGMVTQRIDNLQQTGRVSANGLDWAARSENGQPIPQGMPVEVLRIEGVKLIVRPVN
soluble fraction (log2): -0.00119

HMKKYISEEQAKQAALETAGGGSVVKIKFTTDDGIKVYEIDIINGNYEYEITVHAETGKILDVDKERIH
soluble fraction (log2): -0.404

HMTPDDSYIAGYAAGILKHQFLIDAPELIVRNGTITIPADKVSAGDRAKVVQILSGIPGVTRVEVG
soluble fraction (log2): 0.368

HMAELVISVKADGTIHYQDRQLTKEALAAVLETRPEALLNLYVDEKAPFEAFVGVVDIARLKRGGHFVIST
soluble fraction (log2): -0.947

HMRQDEKTLLYWIAGHLKREGRQITERSARHLVEQVGTDMENLSREMEKLIAYTMGRTEITGQDIDDI
soluble fraction (log2): -1.21

HMDLYEILGVRRGAGGGEIRRAYRRLARRYHPDVNPGDREAQARYALITRAFETLNDPERRRAYDAGVP
soluble fraction (log2): 0.0754

HMYMWQVEDLIRANGLDIERIKDSIIRPYELDEERKRELTQWYEDLIDMMRREGVAQSGHLQIN
soluble fraction (log2): -2.24

HMQGLIGEQKAIQIALSRVPGAKPEHVRELKLDYDDGMQLYEGEIFYNFREYEFEINAVTGEVVGWEI
soluble fraction (log2): -0.839

HMEVEADEFQQLLRSGEYVQALDRARANQDIGLRQQQIVQIARHQAASGIQAGAMGSLASLYQF
soluble fraction (log2): -0.461

HMGLRERLLNYIAYKGIDKATLERKSGLSNDAVNKMGDNTRVSTLDKISNAFPDINIAWLKTGVGEMILG
soluble fraction (log2): 0.146

HMEAADAGTLAQRAAQYFNEKNYAAALDALERRAAMAPETTELRMMRGWSLLHLNRKDEARNAFATLG
soluble fraction (log2): -0.188

HMDLAENWKDDADITLAEYNAIRSRYKPGKLHRDTEFMIARDMLIRPETVLAIAHSRFSNVHTHPV
soluble fraction (log2): -0.771

HMTQMSVLFSELEAKDAATIADKLRERNIPYELSNNGSTILIPQEVLHDTRLSLASEGLPES
soluble fraction (log2): 0.263

HMNGQFIELKNTTGTIIEARVLSFQNGKVKLQRNDGLIFVASISIFDSESIEVIKQKVAEISESKKS
soluble fraction (log2): -0.0246

HMELADNFAKLILTARESKGWTQAQLGQRMAETINVIKSAESGKPPADSVIRKFEMILGIELM
soluble fraction (log2): -0.121

HMRMLLEERLDEIVKIVNERGSISNQELVKMFGASESTIRRDITTLANDNRVIRVHGGAMSVVS
soluble fraction (log2): -0.387

HMDAIDQDGNHMTFKRWGEQLQEAFQALEAYDTDKAKTILNELIKFPIDSDLNNALKGILSNIDEMMA
soluble fraction (log2): -0.68

HMAATVKVPDLTKMTPDEAQRALGQVGLKGKQGDDVDDDSVPVGYIAKQDEAPNSDAKAGDTITYHL
soluble fraction (log2): 0.171

HMNSEFPFNGGRIVDNVPANRLQIFFDEKPDADVRTRLKQNGFRWAPNSGAWQSYRHGYTLDWARREFNA
soluble fraction (log2): -0.197

HMGSTDTLEDALEAAEKISYPVIIKATAGGGGRGMKVASSLEELKKVYHTTKLEAKNAFGNDQVYIEKYL
soluble fraction (log2): -0.0649

HMANTSAVIKQPGLVKLFAQHFVRNGFNAMKAAEAAGFVRPSPTFVRNLADSKPVKDAISELLGPYNDA
soluble fraction (log2): 0.22

HMKELFGQRLREQRLKQNLTLEQLAEKANLSPNYVGMVERGLKEPGLATIVKLLNGLNVSADTLL
soluble fraction (log2): 0.155

HMKPRISMITLGVKDLNKSIEFYGGGLGFPRKKTEPEIAIFKLNGSWLSLYNRGLLAEDANVS
soluble fraction (log2): 0.347

HMQNEVMPYSTFLSEVNSGNVTKVKIDHEQLTGTLKSGKQFTTYILDAATLPSIVAEKGVEVEVVPP
soluble fraction (log2): 0.195

HMTAFAGLTPRERDLLELIAQGRDNAQIAATLGVSDKTVRNHITHIFAKLEVETRAQAIVLARNAGFGRA
soluble fraction (log2): -0.0568

HMSQLDITEARIVVSGGLGMQGPENFKLLEELAKVLGGAVGASRPVVDNGWREYSNQVGQTGKIVAPELYV
soluble fraction (log2): -0.751

HMIMNKEIPVVADEFVEKEFGTGAVKLTPAHDPNDYESGERHGLEVVEVFDETGKMNDLVPEYEG
soluble fraction (log2): -0.0198

HMAKRQATIVYEGTNVRSGPSTSSAIVKRTGKGESYPIVSTKGDWYEIKLSNGDSAYVASWVVQTVD
soluble fraction (log2): -0.871

HMDTMQQESMDTKSILATALMELTSRKNFAKITIADITHVSGFNRQTFYYHFRDKYELLSWIY
soluble fraction (log2): -0.117

HMNLESNQYVIDISDSQVINKDEFETILNQNKTKDIVIKSNNNVTFTFEKGSMIGAEGKDNYDFSSQVNY
soluble fraction (log2): -0.588

HMDYARYGLSEKEAELIELIAQGMNNKEISAEIYLSEGTVRNYISELLEKLELRDRTQLAVYYYTHR
soluble fraction (log2): -1.52

HMREKMKGKILDYNFQESRGIISADDGNRYSFENSQWKGTQSPKVNQIVDFEIDGQNAKDIYLDK
soluble fraction (log2): 0.0691

HMDIAYFSNAELNDAFIQFLNMRQEAGKQLNGYQIQILTEKLERVADTDEDRISAVKNAIAGGWSNFYPPK
soluble fraction (log2): -0.366

HMVESLTDRELQILSLAAKGYTNKAIAVQLGISDRTVQNHLANTFQKLNAESRTEAVMRAVSLGLISA
soluble fraction (log2): -0.422

HMTESSTYFEKIGTEISQFKSIPKNIDVIIIEKLIYSGIIKKVDNEENSRVYYILTRKGRYFWKRYVLS
soluble fraction (log2): -0.0659

HMYEIEDIKEKLLDLLANSKTGFSGLEISNRLGINRITVSKYLNIFSAEGLIKQKNIGNVIIWFVEDGIE
soluble fraction (log2): -0.791

HMHSESAAHQRTSVELFARIPETGNLQSAQRHFDVINQFGRFPHRNKILQRPSSEQEEAFLRQPGSG
soluble fraction (log2): -0.0644

HMITEQEFQRVAAYVKNKAGINLNEKKVLVQGRLDSYMQRKGYSSYDEFMDRVERFPTGPEAEDLMNALTT
soluble fraction (log2): 0.0246

HMNQSEMIGSRLKEERLQQKLTLKQLSEKVGLSIGYLSQVERGYGTLSLSALKKLSSALGLEMSTFFD
soluble fraction (log2): 0.121

HMKSNIGENIRQLREKREMSVERVARMLEVKPATVIGWESGRELPEPAELGLLAKLFDVTVEELN
soluble fraction (log2): -0.0738

HMKMQIGEIIRKYRKSNHMTQEEMAERLGVSAPAVNKWENGNSMPDIMLLAPITRLLGISLDELLSFE
soluble fraction (log2): -0.581

HMDGVEVVTKPAGAQIEFAGKSYGPSPVHIPGLVAGSQLILRLPGFQAATVRLRTAPDKSKALEYTLQPA
soluble fraction (log2): -0.0155

HMTPQGALDYSRNAKYLRDQVTAINYLKQARLSLNTTDANYRQTLEQINQAIAKHNQALQQAGVQSQQLAT
soluble fraction (log2): 0.22

HMASRTLSYSEFMSRVDSGDVTSVTLDGERIIMRTSNNQEFLSIKPEGEDISERLLAKNIEVRAEAQQ
soluble fraction (log2): -1.58

HMQSREISYSEFVTAVEAGDVRNVTLDGEQVRFRRADGSDYVTIRPEDAEVTKLLMANDIPVRAEP
soluble fraction (log2): -0.198

HMSPVPRIEIELTSSKEDGSWTWRAVGAREPRGSLDGALLAKPAAVGDVLRVETDQFLDGMTVTAILPPRD
soluble fraction (log2): -0.6

HMYTVKELSRLTGLTPRTLRYYDAIGLLSPARNRDNDYRLYGGAEVDRLQEILLYREMGLPLEEIGRILD
soluble fraction (log2): -0.491

HMAYQQITIKANVVNVRQGPGLSYDVMSQANKGETMNVISQKNNWYQVRLSGDKIGWVASWLVDNT
soluble fraction (log2): ≥ 0.43

HMLGYQALASAFRSKVEAGIWPIGEAIPSEARLSKEYGVAVGTIRQAIAELAEEGILIKRHGKSTMVSSG
soluble fraction (log2): 0.101

HMGKRRGLKVAEEVFADRGYNPDGTLVNRSLPGAFVKDPDEAIARVIKMVKTKKVTAVNGEEIDIAADSI
soluble fraction (log2): -0.462

HMHITSFTIKQADQIVGTTPVREQAVGAAKARAQQTGTPVSVIAYLDTGEEREVIIHPDGTN
soluble fraction (log2): -0.328

HMPGLSQAEAQSLLIAYLAQQGRTLELIPLGQSGDVWRFSGRESDGTVVSFFMVSRTDGTISEVPVPP
soluble fraction (log2): -0.992

HMEPELLTTKQVASVMNIGEERARAILLSRGVQPVSLPWGKERKTLRWSRRAVMTVIDTLHAEAQAKAGV
soluble fraction (log2): 0.18

HMSDNHYLLEIFLADLKSDEKFIRELAIFQLHHHIESDKVRAELKAAAETESDPYLKGMIESLLSSTS
soluble fraction (log2): -1.2

HMFNEFEDIPDIISAEGIDPAMREEVAANLKKYYKNPDAMLALAPLEREYYEKLVGILSEKIELKKEN
soluble fraction (log2): -0.361

HMPNQIKQIAVNTASVSDIATIPGISFDFAKEIWEFRILRQKIGSLSELQKIEGMTASKYALIELYLHI
soluble fraction (log2): -0.41

HMASDYYTTTANLNLRSGAGTTYGSLIIIEKGDTVKLLENVNDHWVKIQYDDKIGYVAMSYLLPIE
soluble fraction (log2): -0.113

HMKEGTIPPVVNRTLSDAEFVLKSYGYELGRVSEQHSDMPKDIVIKQSPEAGTVADPGTRVDVVVSIGKA
soluble fraction (log2): 0.0175

HMNDAARQTTDILQHVRSSGSISFRDLWRLFMPFMAYRDFDAAVKSLVAAGHIATTENERKELHLIAF
soluble fraction (log2): -1.42

HMQSLDGPSRAAIVLMAIGPDVAGELIKSFSPAEAQKVSSLLATVRSLDREVMIEVLDSFKNITEH
soluble fraction (log2): -0.5
